Consider one molecule from patent US12624097B2, “Nucleic acids, vectors, and cells that encode anti-Sp17 antibodies and other Sp17 binding proteins” (Medicovestor, Inc., priority 2023, dated 2026).

Entries after “also recorded” stand apart in the source; their conditions may differ.

One assay concerns the target T1, Sp17 protein (Homo sapiens, UniProt Q15506).
T1 sequence (Q15506 1-151): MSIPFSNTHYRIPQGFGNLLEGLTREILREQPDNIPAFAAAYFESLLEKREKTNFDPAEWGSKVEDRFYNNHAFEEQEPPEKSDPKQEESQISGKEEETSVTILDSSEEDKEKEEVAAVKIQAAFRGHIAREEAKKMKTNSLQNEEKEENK
Kind of assay: Western blot detection of Sp17 protein. In kind it is binding. From the text:
The nucleotide sequences encoding the VH and VL regions of Example 1 were cloned into a […] heavy chain gene and a mouse kappa light chain gene, respectively, and expressed in CHO-S cells to produce a mouse-human chimeric antibody, which was named chAB2. Successful generation of the antibody was confirmed by SDS-PAGE and western blotting using anti-mouse heavy and light chain antibodies and recombinant Sp17 protein (FIGS. 2 & 3).
The VH and VL nucleotide sequences of Example 1 were cloned into a human IgG4 heavy chain gene and a human kappa light chain gene, respectively. A Ser228Pro mutation was introduced in the heavy chain to reduce non-specific Fc receptor gamma binding. The resultant antibody was named SP17-AB2. Successful cloning was confirmed by sequence analysis. The amino acid sequences of the heavy chain and light chain are shown in Table 4, and the Ser228Pro mutation is underlined in SEQ ID NO: 11.
On the technique in general: A western blot detects proteins with antibodies after separation by electrophoresis.

The subject of a further assay is 33 normal human tissues. Kind of assay: Immunohistochemistry on a normal tissue microarray (specificity). The settings on record: 33 normal tissues, 2-3 human donors per tissue. The method, then:
The specificity of the chAB2 antibody for Sp17 was determined with immunohistochemistry on a normal tissue microarray, which consisted of 33 normal tissues obtained from 2-3 human donors per tissue. The normal tissues included brain, eye, adrenal gland, hypophyseal, thyroid, parathyroid, tonsil, thymus, spleen, heart, lung, larynx, esophagus, stomach, small intestine, colon, liver, pancreas, salivary gland, kidney, bone, skeletal, skin, peripheral nerve, mesothelial, breast, ovary, endometrium, cervix, testis, and prostate.

B1: chAB2: mouse-human chimeric anti-Sp17 monoclonal antibody; human VH/VL (SEQ ID NO: 3, 4) with mouse IgG2a heavy and mouse kappa light chain (antibody, V domains shown)
VH: QVQLQQSGAEVKKPGSSVKVSCKASGGTFSSYAISWVRQAPGQGLEWMGRIIPILGIANYAQKFQGRVTITADKSTSTAYMELSSLRSEDTAVYYCARPSEEVVAAYGAFDIWGQGTTVTVSS
VL: EIVLTQSPLSLPVRPGEPASISCRASQSLLRSDGFNYLDWYLQKPGQSPQLLVYLGSNRASGVPDRFSGSGSGTDFTLKISRVEAEDVGVYYCMQAVQTPYIFGQGTKLEIK
modifications: mouse IgG2a heavy and mouse kappa constant regions
For the molecule B1, the “binding to Sp17 protein by western blot” value in the assay with Sp17 protein is “Sp17 protein was detected”. For the same molecule, the “binding to normal tissues (cross-reactivity)” value in the assay on 33 normal human tissues was “bound to testis and did not bind to normal tissues; also recorded: lack detectable cross-reactivity”.
